Assay results published in patent US20240350653A1 (JOINT STOCK COMPANY GENERIUM, published 2024).

Tests used:
[1] = biological target: T1, mouse insulin receptor (mInsR, R&D Systems, Inc., Cat. No. 7544-MR) (mouse, UniProt P15208 28-946, limits assumed); assay: ELISA on mouse insulin receptor
T1 construct: extracellular domain; Bought protein; also called extracellular domain of the mouse insulin receptor

[2] = biological target: T2, Human Insulin Receptor protein fragment (Abcam cat #ab200510) (human, UniProt P06213-2 28-944, limits assumed); assay: ELISA on human insulin receptor fragment
T2 construct: domain: extracellular domain of the alpha subunit; Bought fragment; also called HIR; extracellular domain of the alpha subunit of the human insulin receptor

[3] = biological target: T2, Human Insulin Receptor protein fragment …; assay: ELISA on human insulin receptor fragment, relative to 83-14 mAb

Row | Binder | EC50 [1] | Receptor binding, % [1] | EC50 [2] | Receptor binding from antibody 83-14 mAb, % [3]
1 | HIR-FAB-IDS (SEQ ID NO: 8 and SEQ ID NO: 12) (Fab, Variant of the Fab-iduronate-2-sulfatase fusion) light: DIQMTQSPSSLSASVGDRVTITCRASQDIGGNLYWYQQKPGKAPKLLIYATSSLDSGVPSRFSGSGSGTDFTLTISSLQPEDVATYYCLQYSSSPWTFGQGTKVEIKRTVAAPSVFIFPPSDEQLKSGTASVVCLLNNFYPREAKVQWKVDNALQSGNSQESVTEQDSKDSTYSLSSTLTLSKADYEKHKVYACEVTHQGLSSPVTKSFNRGEC heavy: EVQLVESGGGLVQPGRSLRLSCAASGFTFTNYDIHWVRQAPGKGLEWVSWIYPGDGSTKYNEKFKGRFTISRDNAKNSLYLQMNSLRAEDTAVYYCAKEWAYWGQGTLVTVSSASTKGPSVFPLAPSSKSTSGGTAALGCLVKDYFPEPVTVSWNSGALTSGVHTFPAVLQSSGLYSLSSVVTVPSSSLGTQTYICNVNHKPSNTKVDKKVEPKSCDKTHLSSSETQANSTTDALNVLLIIVDDLRPSLGCYGDKLVRSPNIDQLASHSLLFQNAFAQQAVCAPSRVSFLTGRRPDTTRLYDFNSYWRVHAGNFSTIPQYFKENGYVTMSVGKVFHPGISSNHTDDSPYSWSFPPYHPSSEKYENTKTCRGPDGELHANLLCPVDVLDVPEGTLPDKQSTEQAIQLLEKMKTSASPFFLAVGYHKPHIPFRYPKEFQKLYPLENITLAPDPEVPDGLPPVAYNPWMDIRQREDVQALNISVPYGPIPVDFQRKIRQSYFASVSYLDTQVGRLLSALDDLQLANSTIIAFTSDHGWALGEHGEWAKYSNFDVATHVPLIFYVPGRTASLPEAGEKLFPYLDPFDSASQLMEPGRQSMDLVELVSLFPTLAGLAGLQVPPRCPVPSFHVELCREGKNLLKHFRFRDLEEDPYLPGNPRELIAYSQYPRPSDIPQWNSDKPSLKDIKIMGYSIRTIDYRYTVWVGFNPDEFLANFSDIHAGELYFVDSDPLQDHNMYNDSQGGDLFQLLMP | > 0.8 µg/mL | 0% | 0.121 µg/mL | 27%
2 | HIR-FAB-IDS (SEQ ID NO: 9 and SEQ ID NO: 13) (Fab, Variant of the Fab-iduronate-2-sulfatase fusion) light: EIVLTQSPDFQSVTPKEKVTITCRASQDIGGNLYWYQQKPDQSPKLLIKATSSLDSGVPSRFSGSGSGTDFTLTINSLEAEDAAAYYCLQYSSSPWTFGPGTKVDIKRTVAAPSVFIFPPSDEQLKSGTASVVCLLNNFYPREAKVQWKVDNALQSGNSQESVTEQDSKDSTYSLSSTLTLSKADYEKHKVYACEVTHQGLSSPVTKSFNRGEC heavy: QVQLVESGGGVVQPGRSLRLSCAASGFTFSNYDIHWVRQAPGKGLEWVAWIYPGDGSTKYNEKFKGRFTISRDNSKNTLYLQMNGLRAEDTAVYYCAREWAYWGQGTLVTVSSASTKGPSVFPLAPSSKSTSGGTAALGCLVKDYFPEPVTVSWNSGALTSGVHTFPAVLQSSGLYSLSSVVTVPSSSLGTQTYICNVNHKPSNTKVDKRVEPKSCDKTHLSSSETQANSTTDALNVLLIIVDDLRPSLGCYGDKLVRSPNIDQLASHSLLFQNAFAQQAVCAPSRVSFLTGRRPDTTRLYDFNSYWRVHAGNFSTIPQYFKENGYVTMSVGKVFHPGISSNHTDDSPYSWSFPPYHPSSEKYENTKTCRGPDGELHANLLCPVDVLDVPEGTLPDKQSTEQAIQLLEKMKTSASPFFLAVGYHKPHIPFRYPKEFQKLYPLENITLAPDPEVPDGLPPVAYNPWMDIRQREDVQALNISVPYGPIPVDFQRKIRQSYFASVSYLDTQVGRLLSALDDLQLANSTIIAFTSDHGWALGEHGEWAKYSNFDVATHVPLIFYVPGRTASLPEAGEKLFPYLDPFDSASQLMEPGRQSMDLVELVSLFPTLAGLAGLQVPPRCPVPSFHVELCREGKNLLKHFRFRDLEEDPYLPGNPRELIAYSQYPRPSDIPQWNSDKPSLKDIKIMGYSIRTIDYRYTVWVGFNPDEFLANFSDIHAGELYFVDSDPLQDHNMYNDSQGGDLFQLLMP | > 0.8 µg/mL | 0% | 0.0604 µg/mL | 55%
3 | HIR-FAB-IDS (SEQ ID NO: 11 and SEQ ID NO: 15) (Fab, Variant of the Fab-iduronate-2-sulfatase fusion) light: EIVLTQSPATLSLSPGERATLSCRASQDIGGNLYWYQQKPGQAPRLLIYATSSLDSGIPARFSGSGSGTDFTLTISSLEPEDFAVYYCLQYSSSPWTFGQGTRLEIKRTVAAPSVFIFPPSDEQLKSGTASVVCLLNNFYPREAKVQWKVDNALQSGNSQESVTEQDSKDSTYSLSSTLTLSKADYEKHKVYACEVTHQGLSSPVTKSFNRGEC heavy: EVQLVESGGGLVQPGRSLRLSCAASGFTFNNYDIHWVRQAPGKGLEWVSWIYPGDGSTKYNEKFKGRFTISRDNAKKSLYLQMNSLRAEDTALYYCAKEWAYWGQGTTVTVSSASTKGPSVFPLAPGSSKSTSGTAALGCLVKDYFPEPVTVSWNSGALTSGVHTFPAVLQSSGLYSLSSVVTVPSSSLGTQTYICNVNHKPSNTKVDKKVEPKSCDKTHLSSSETQANSTTDALNVLLIIVDDLRPSLGCYGDKLVRSPNIDQLASHSLLFQNAFAQQAVCAPSRVSFLTGRRPDTTRLYDFNSYWRVHAGNFSTIPQYFKENGYVTMSVGKVFHPGISSNHTDDSPYSWSFPPYHPSSEKYENTKTCRGPDGELHANLLCPVDVLDVPEGTLPDKQSTEQAIQLLEKMKTSASPFFLAVGYHKPHIPFRYPKEFQKLYPLENITLAPDPEVPDGLPPVAYNPWMDIRQREDVQALNISVPYGPIPVDFQRKIRQSYFASVSYLDTQVGRLLSALDDLQLANSTIIAFTSDHGWALGEHGEWAKYSNFDVATHVPLIFYVPGRTASLPEAGEKLFPYLDPFDSASQLMEPGRQSMDLVELVSLFPTLAGLAGLQVPPRCPVPSFHVELCREGKNLLKHFRFRDLEEDPYLPGNPRELIAYSQYPRPSDIPQWNSDKPSLKDIKIMGYSIRTIDYRYTVWVGFNPDEFLANFSDIHAGELYFVDSDPLQDHNMYNDSQGGDLFQLLMP | > 0.8 µg/mL | 0% | 0.156 µg/mL | 21%

Now from value to binder:

Row | EC50 [1] | Receptor binding, % [1] | EC50 [2] | Receptor binding from antibody 83-14 mAb, % [3] | Binder
4 | > 0.8 µg/mL | 0% | 0.0351 µg/mL | 94% | HIR-FAB-IDS (SEQ ID NO: 10 and SEQ ID NO: 14) (Fab, Variant of the Fab-iduronate-2-sulfatase fusion) light: DIQLTQSPSSLSASVGDRVTITCRASQDIGGNLYWYQQKPGKAPKVLIYATSSLDSGVPSRFSGSGSGTDFTLTISSLQPEDFATYYCLQYSSSPWTFGQGTKVEIKRTVAAPSVFIFPPSDEQLKSGTASVVCLLNNFYPREAKVQWKVDNALQSGNSQESVTEQDSKDSTYSLSSTLTLSKADYEKHKVYACEVTHQGLSSPVTKSFNRGEC heavy: EVQLVESGGGLVQPGGSLRLSCAASGYDFTNYDIHWVRQAPGKGLEWVGWIYPGDGSTKYNEKFKGRFTFSLDTSKSTAYLQMNSLRAEDTAVYYCAKEWAYWGQGTLVTVSSASTKGPSVFPLAPSSKSTSGGTAALGCLVKDYFPEPVTVSWNSGALTSGVHTFPAVLQSSGLYSLSSVVTVPSSSLGTQTYICNVNHKPSNTKVDKKVEPKSCDKTHLSSSETQANSTTDALNVLLIIVDDLRPSLGCYGDKLVRSPNIDQLASHSLLFQNAFAQQAVCAPSRVSFLTGRRPDTTRLYDFNSYWRVHAGNFSTIPQYFKENGYVTMSVGKVFHPGISSNHTDDSPYSWSFPPYHPSSEKYENTKTCRGPDGELHANLLCPVDVLDVPEGTLPDKQSTEQAIQLLEKMKTSASPFFLAVGYHKPHIPFRYPKEFQKLYPLENITLAPDPEVPDGLPPVAYNPWMDIRQREDVQALNISVPYGPIPVDFQRKIRQSYFASVSYLDTQVGRLLSALDDLQLANSTIIAFTSDHGWALGEHGEWAKYSNFDVATHVPLIFYVPGRTASLPEAGEKLFPYLDPFDSASQLMEPGRQSMDLVELVSLFPTLAGLAGLQVPPRCPVPSFHVELCREGKNLLKHFRFRDLEEDPYLPGNPRELIAYSQYPRPSDIPQWNSDKPSLKDIKIMGYSIRTIDYRYTVWVGFNPDEFLANFSDIHAGELYFVDSDPLQDHNMYNDSQGGDLFQLLMP
5 | > 0.8 µg/mL | 0% | 0.0243 µg/mL | 136% | HIR-FAB-IDS (SEQ ID NO: 2 and SEQ ID NO: 4) (Fab, Fab fragment of an IgG1 antibody to the human insulin receptor, fused to iduronate-2-sulfatase; also called rIDS-FAB-HI; rHI-FAB-IDS) light: DIQMTQSPSSLSASLGERVSLTCRASQDIGGNLYWLQQGPDGTIKRLIYATSSLDSGVPKRFSGSRSGSDYSLTISSLESEDFVDYYCLQYSSSPWTFGGGTKMEIKRTVAAPSVFIFPPSDEQLKSGTASVVCLLNNFYPREAKVQWKVDNALQSGNSQESVTEQDSKDSTYSLSSTLTLSKADYEKHKVYACEVTHQGLSSPVTKSFNRGEC heavy: QVQLQQSGPELVKPGALVKISCKASGYTFTNYDIHWVKQRPGQGLEWIGWIYPGDGSTKYNEKFKGKATLTADKSSSTAYMHLSSLTSEKSAVYFCAREWAYWGQGTLVTVSAASTKGPSVFPLAPSSKSTSGGTAALGCLVKDYFPEPVTVSWNSGALTSGVHTFPAVLQSSGLYSLSSVVTVPSSSLGTQTYICNVNHKPSNTKVDKKVEPKSCDKTHLSSSETQANSTTDALNVLLIIVDDLRPSLGCYGDKLVRSPNIDQLASHSLLFQNAFAQQAVCAPSRVSFLTGRRPDTTRLYDFNSYWRVHAGNFSTIPQYFKENGYVTMSVGKVFHPGISSNHTDDSPYSWSFPPYHPSSEKYENTKTCRGPDGELHANLLCPVDVLDVPEGTLPDKQSTEQAIQLLEKMKTSASPFFLAVGYHKPHIPFRYPKEFQKLYPLENITLAPDPEVPDGLPPVAYNPWMDIRQREDVQALNISVPYGPIPVDFQRKIRQSYFASVSYLDTQVGRLLSALDDLQLANSTIIAFTSDHGWALGEHGEWAKYSNFDVATHVPLIFYVPGRTASLPEAGEKLFPYLDPFDSASQLMEPGRQSMDLVELVSLFPTLAGLAGLQVPPRCPVPSFHVELCREGKNLLKHFRFRDLEEDPYLPGNPRELIAYSQYPRPSDIPQWNSDKPSLKDIKIMGYSIRTIDYRYTVWVGFNPDEFLANFSDIHAGELYFVDSDPLQDHNMYNDSQGGDLFQLLMP
